Here are results for four sequences from article PMC6761100.

The target in the assay is Myc.His.CK1a. Nature of the assay: c-Myc immunoprecipitation (CK1a IP). Particulars: strains cultured in LL; n = 4; parent: est. 1.0; read off a plot.

Consider “FREQUENCY (FRQ), wild type (from UniProt P19970) L488V”, for which the ratio to parent stood at 0.23.
The value for “FREQUENCY (FRQ), wild type (from UniProt P19970) Q325N” was 0.97.
Then “FREQUENCY (FRQ), wild type (from UniProt P19970) Q494N”, with 0.68; and “FREQUENCY (FRQ), wild type (from UniProt P19970) V320I”, with 0.52.
